{"source": "patent US20250387450A1", "target": "CD74 disordered region peptide (CLIP), …", "assay": "modified sandwich ELISA, fluorescence grade by the table's key", "data": [{"substance": "FlhG", "values": [{"measurement": "fluorescent signal (fluorescentsignal)", "value": "100000 to 250000"}]}]}
